Assay results: article PMC6315849
pKd: −log10 of the molar value.

Biological target: Labeled Vip3Aa (MST) (Bacillus thuringiensis)
Test: MST; labeled Vip3Aa 10 nM, GST-FGFR-N titrated 0.3 nM to 10 µM; 25 mM HEPES pH 7.5, 0.05% Tween-20, 150 mM NaCl; 25 °C; Hill equation fit; three independent experiments

Substance: GST-FGFR-N (extracellular regions of Sf-FGFR, aa 27-415, with a GST tag) (domain or fragment)
- pKd: 5.84
